{
  "source": "the supplement of paper PMC9112550",
  "about": "“Optimization of the antimicrobial peptide Bac7 by deep mutational scanning” (BMC Biology, 2022);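 further: peptides expressed intracellularly from a pBAD plasmid library in pooled LB shake-flask culture, induced with 0.3% L-arabinose, DNA abundance read by NGS, three biological replicates, DESeq2 with apeglm shrinkage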",
  "data": [
    {"system": "Escherichia coli TOP10", "experiment": "shrunken log2 fold change of peptide-encoding DNA abundance (4.5 h post-induction vs induction); higher = less antimicrobial activity (less host growth inhibition)", "conditions": "time post-induction: 4.5 h; library: site-saturation at positions 5, 18, 19, 20", "values": [
      {"sequence": "RRIRGRPPRLPRPRPRPSPHPRP", "shrunken log2 fold change": 0.435},
      {"sequence": "RRIRGRPPRLPRPRPRPSPIPRP", "shrunken log2 fold change": 0.411},
      {"sequence": "RRIRGRPPRLPRPRPRPSPNPRP", "shrunken log2 fold change": 0.244},
      {"sequence": "RRIRGRPPRLPRPRPRPSPTPRP", "shrunken log2 fold change": 0.828},
      {"sequence": "RRIRGRPPRLPRPRPRPSQGPRP", "shrunken log2 fold change": -0.187},
      {"sequence": "RRIRGRPPRLPRPRPRPSRSPRP", "shrunken log2 fold change": 0.253},
      {"sequence": "RRIRGRPPRLPRPRPRPSTMPRP", "shrunken log2 fold change": 0.21},
      {"sequence": "RRIRGRPPRLPRPRPRPSVGPRP", "shrunken log2 fold change": 0.333},
      {"sequence": "RRIRGRPPRLPRPRPRPSVKPRP", "shrunken log2 fold change": 0.293},
      {"sequence": "RRIRGRPPRLPRPRPRPSVSPRP", "shrunken log2 fold change": 0.166},
      {"sequence": "RRIRGRPPRLPRPRPRPSWHPRP", "shrunken log2 fold change": 0.0802},
      {"sequence": "RRIRGRPPRLPRPRPRPSWTPRP", "shrunken log2 fold change": 0.219},
      {"sequence": "RRIRGRPPRLPRPRPRPSYAPRP", "shrunken log2 fold change": 0.316},
      {"sequence": "RRIRGRPPRLPRPRPRPSYRPRP", "shrunken log2 fold change": -0.144},
      {"sequence": "RRIRGRPPRLPRPRPRPTCLPRP", "shrunken log2 fold change": 0.576},
      {"sequence": "RRIRGRPPRLPRPRPRPTCWPRP", "shrunken log2 fold change": 0.764},
      {"sequence": "RRIRGRPPRLPRPRPRPTEQPRP", "shrunken log2 fold change": 0.883},
      {"sequence": "RRIRGRPPRLPRPRPRPTETPRP", "shrunken log2 fold change": 0.559},
      {"sequence": "RRIRGRPPRLPRPRPRPTFDPRP", "shrunken log2 fold change": 0.548},
      {"sequence": "RRIRGRPPRLPRPRPRPTFEPRP", "shrunken log2 fold change": 0.923},
      {"sequence": "RRIRGRPPRLPRPRPRPTGGPRP", "shrunken log2 fold change": 0.887},
      {"sequence": "RRIRGRPPRLPRPRPRPTHEPRP", "shrunken log2 fold change": 1.34},
      {"sequence": "RRIRGRPPRLPRPRPRPTHFPRP", "shrunken log2 fold change": 0.71},
      {"sequence": "RRIRGRPPRLPRPRPRPTIFPRP", "shrunken log2 fold change": 0.127},
      {"sequence": "RRIRGRPPRLPRPRPRPTNKPRP", "shrunken log2 fold change": 0.242},
      {"sequence": "RRIRGRPPRLPRPRPRPTNMPRP", "shrunken log2 fold change": 0.316},
      {"sequence": "RRIRGRPPRLPRPRPRPTNRPRP", "shrunken log2 fold change": 0.258},
      {"sequence": "RRIRGRPPRLPRPRPRPTRGPRP", "shrunken log2 fold change": 0.808},
      {"sequence": "RRIRGRPPRLPRPRPRPTRTPRP", "shrunken log2 fold change": 1.32},
      {"sequence": "RRIRGRPPRLPRPRPRPTSQPRP", "shrunken log2 fold change": 0.87},
      {"sequence": "RRIRGRPPRLPRPRPRPTTDPRP", "shrunken log2 fold change": 0.918},
      {"sequence": "RRIRGRPPRLPRPRPRPTTTPRP", "shrunken log2 fold change": 1.07},
      {"sequence": "RRIRGRPPRLPRPRPRPTVAPRP", "shrunken log2 fold change": 1.99},
      {"sequence": "RRIRGRPPRLPRPRPRPTWTPRP", "shrunken log2 fold change": 1.18},
      {"sequence": "RRIRGRPPRLPRPRPRPTWVPRP", "shrunken log2 fold change": 0.493},
      {"sequence": "RRIRGRPPRLPRPRPRPTYFPRP", "shrunken log2 fold change": 0.0176},
      {"sequence": "RRIRGRPPRLPRPRPRPTYHPRP", "shrunken log2 fold change": 0.0704},
      {"sequence": "RRIRGRPPRLPRPRPRPTYWPRP", "shrunken log2 fold change": 0.186},
      {"sequence": "RRIRGRPPRLPRPRPRPVAKPRP", "shrunken log2 fold change": 0.961},
      {"sequence": "RRIRGRPPRLPRPRPRPVCFPRP", "shrunken log2 fold change": 0.997},
      {"sequence": "RRIRGRPPRLPRPRPRPVEWPRP", "shrunken log2 fold change": 0.0602},
      {"sequence": "RRIRGRPPRLPRPRPRPVFCPRP", "shrunken log2 fold change": 0.206},
      {"sequence": "RRIRGRPPRLPRPRPRPVHAPRP", "shrunken log2 fold change": 0.743},
      {"sequence": "RRIRGRPPRLPRPRPRPVIYPRP", "shrunken log2 fold change": 0.0164},
      {"sequence": "RRIRGRPPRLPRPRPRPVKCPRP", "shrunken log2 fold change": -0.118},
      {"sequence": "RRIRGRPPRLPRPRPRPVKMPRP", "shrunken log2 fold change": 0.127},
      {"sequence": "RRIRGRPPRLPRPRPRPVMIPRP", "shrunken log2 fold change": 0.157},
      {"sequence": "RRIRGRPPRLPRPRPRPVMPPRP", "shrunken log2 fold change": 0.16},
      {"sequence": "RRIRGRPPRLPRPRPRPVNDPRP", "shrunken log2 fold change": 0.368},
      {"sequence": "RRIRGRPPRLPRPRPRPVNFPRP", "shrunken log2 fold change": 0.44},
      {"sequence": "RRIRGRPPRLPRPRPRPVNHPRP", "shrunken log2 fold change": 0.301},
      {"sequence": "RRIRGRPPRLPRPRPRPVPQPRP", "shrunken log2 fold change": 0.618},
      {"sequence": "RRIRGRPPRLPRPRPRPVRTPRP", "shrunken log2 fold change": 1.3},
      {"sequence": "RRIRGRPPRLPRPRPRPVRYPRP", "shrunken log2 fold change": 0.428},
      {"sequence": "RRIRGRPPRLPRPRPRPVSVPRP", "shrunken log2 fold change": 0.624},
      {"sequence": "RRIRGRPPRLPRPRPRPVSYPRP", "shrunken log2 fold change": 0.291},
      {"sequence": "RRIRGRPPRLPRPRPRPVTMPRP", "shrunken log2 fold change": 0.396},
      {"sequence": "RRIRGRPPRLPRPRPRPVTVPRP", "shrunken log2 fold change": 0.0499},
      {"sequence": "RRIRGRPPRLPRPRPRPVVDPRP", "shrunken log2 fold change": 0.873},
      {"sequence": "RRIRGRPPRLPRPRPRPVWIPRP", "shrunken log2 fold change": 0.276},
      {"sequence": "RRIRGRPPRLPRPRPRPVWMPRP", "shrunken log2 fold change": -0.117},
      {"sequence": "RRIRGRPPRLPRPRPRPWCDPRP", "shrunken log2 fold change": 0.0715},
      {"sequence": "RRIRGRPPRLPRPRPRPWDLPRP", "shrunken log2 fold change": -0.0503},
      {"sequence": "RRIRGRPPRLPRPRPRPWDTPRP", "shrunken log2 fold change": 0.194},
      {"sequence": "RRIRGRPPRLPRPRPRPWFCPRP", "shrunken log2 fold change": -0.444},
      {"sequence": "RRIRGRPPRLPRPRPRPWFRPRP", "shrunken log2 fold change": -0.0346},
      {"sequence": "RRIRGRPPRLPRPRPRPWGCPRP", "shrunken log2 fold change": 0.702},
      {"sequence": "RRIRGRPPRLPRPRPRPWGFPRP", "shrunken log2 fold change": -0.126},
      {"sequence": "RRIRGRPPRLPRPRPRPWGPPRP", "shrunken log2 fold change": 0.427},
      {"sequence": "RRIRGRPPRLPRPRPRPWGYPRP", "shrunken log2 fold change": 0.094},
      {"sequence": "RRIRGRPPRLPRPRPRPWHRPRP", "shrunken log2 fold change": 0.0496},
      {"sequence": "RRIRGRPPRLPRPRPRPWKPPRP", "shrunken log2 fold change": 0.0444},
      {"sequence": "RRIRGRPPRLPRPRPRPWLNPRP", "shrunken log2 fold change": -0.00435},
      {"sequence": "RRIRGRPPRLPRPRPRPWLQPRP", "shrunken log2 fold change": 0.201},
      {"sequence": "RRIRGRPPRLPRPRPRPWMEPRP", "shrunken log2 fold change": 0.563}
    ]}
  ]
}
